# Source: patent US20060084085
# T1: acetylated Ku70 K539 peptide DYNPEGK-AcVTKRKC
# T1 chain: DYNPEGKVTKRKC
# T2: acetylated Ku70 K542 peptide PEGKVTK-AcRKHDNC
# T2 chain: PEGKVTKRKHDNC
# T3: peptide 29 variant that retained K542 (KRRR)
# T3 chain: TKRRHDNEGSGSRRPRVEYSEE
# T4: Ku70 peptide 29 (amino acids 541-562)
# T4 chain: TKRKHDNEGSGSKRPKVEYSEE
# T5: Ku70 peptide 16 (amino acids 325-341)
# T5 chain: RQIILEKEETEELKRFD
# T6: peptide 29 variant that retained K553 (RRKR)
# T6 chain: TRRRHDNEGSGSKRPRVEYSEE
# T7: Ku70 peptide 8 (amino acids 157-173)
# T7 chain: VQFKMSHKRIMLFTNED
# T8: Ku70 peptide 15 (amino acids 310-322)
# T8 chain: LLLPSDTKRSQIY
# T9: Ku70 peptide 3 (amino acids 44-58)
# T9 chain: ASKAMFESQSEDELT
# Legend:
# [1] = molecular target: acetylated Ku70-K331 peptide
# [2] = molecular target: T1, acetylated Ku70 K539 peptide …
# [3] = molecular target: T2, acetylated Ku70 K542 peptide …
# [4] = molecular target: T3, peptide 29 variant that retained K542 …
# [5] = molecular target: T4, Ku70 peptide 29 (amino acids 541-562)
# [6] = molecular target: T5, Ku70 peptide 16 (amino acids 325-341)
# [7] = molecular target: T6, peptide 29 variant that retained K553 …
# [8] = molecular target: recombinant Ku70/80 complex, P13010
# recombinant Ku70/80 complex, P13010, sequence (chain, as listed by the source, chain 1 of 2): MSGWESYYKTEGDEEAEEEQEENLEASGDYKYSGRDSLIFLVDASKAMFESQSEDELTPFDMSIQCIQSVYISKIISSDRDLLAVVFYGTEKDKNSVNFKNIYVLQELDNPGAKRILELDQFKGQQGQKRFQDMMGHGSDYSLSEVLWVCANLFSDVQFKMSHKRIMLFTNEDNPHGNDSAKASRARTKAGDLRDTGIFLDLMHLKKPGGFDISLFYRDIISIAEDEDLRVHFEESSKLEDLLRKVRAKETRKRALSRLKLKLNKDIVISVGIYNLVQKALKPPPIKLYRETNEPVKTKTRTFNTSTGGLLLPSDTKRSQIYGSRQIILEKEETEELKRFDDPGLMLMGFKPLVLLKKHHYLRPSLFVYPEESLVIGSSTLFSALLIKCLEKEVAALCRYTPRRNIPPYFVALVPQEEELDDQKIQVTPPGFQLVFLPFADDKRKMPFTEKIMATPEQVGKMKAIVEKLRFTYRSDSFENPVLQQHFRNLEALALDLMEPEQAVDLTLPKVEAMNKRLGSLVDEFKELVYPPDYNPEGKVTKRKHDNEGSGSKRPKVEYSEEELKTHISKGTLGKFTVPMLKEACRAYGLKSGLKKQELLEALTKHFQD
# recombinant Ku70/80 complex, P13010, sequence (P13010 whole entry, chain 2 of 2, the tested form may be a part): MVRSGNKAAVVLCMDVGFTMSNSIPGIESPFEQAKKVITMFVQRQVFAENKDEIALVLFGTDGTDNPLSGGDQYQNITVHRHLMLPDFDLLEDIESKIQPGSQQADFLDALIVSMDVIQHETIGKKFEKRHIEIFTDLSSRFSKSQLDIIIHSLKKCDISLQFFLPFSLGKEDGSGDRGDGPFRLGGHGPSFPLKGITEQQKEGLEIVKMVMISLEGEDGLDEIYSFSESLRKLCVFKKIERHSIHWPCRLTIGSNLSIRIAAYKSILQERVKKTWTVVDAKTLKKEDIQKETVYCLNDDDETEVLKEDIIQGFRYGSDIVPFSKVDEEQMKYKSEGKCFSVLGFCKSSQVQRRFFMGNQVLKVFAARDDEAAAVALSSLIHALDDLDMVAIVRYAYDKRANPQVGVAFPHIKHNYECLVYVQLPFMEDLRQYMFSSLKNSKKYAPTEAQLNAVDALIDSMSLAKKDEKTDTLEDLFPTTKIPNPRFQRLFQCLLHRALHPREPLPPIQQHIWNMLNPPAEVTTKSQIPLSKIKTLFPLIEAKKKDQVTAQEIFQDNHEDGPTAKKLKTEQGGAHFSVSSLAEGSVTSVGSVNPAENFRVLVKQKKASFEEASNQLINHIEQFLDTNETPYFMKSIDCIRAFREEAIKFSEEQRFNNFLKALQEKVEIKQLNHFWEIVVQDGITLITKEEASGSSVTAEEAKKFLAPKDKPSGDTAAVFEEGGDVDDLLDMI
# [9] = molecular target: T7, Ku70 peptide 8 (amino acids 157-173)
# [10] = molecular target: T8, Ku70 peptide 15 (amino acids 310-322)
# [11] = molecular target: T9, Ku70 peptide 3 (amino acids 44-58)
protein,measurement,setting,value
human SIRT1 (protein) MADEAALALQPGGSPSAAGADREAASSPAGEPLRKRPRRDGPGLERSPGEPGGAAPEREVPAAARGCPGAAAAALWREAEAEAAAAGGEQEAQATAAAGEGDNGPGLQGPSREPPLADNLYDEDDDDEGEEEEEAAAAAIGYRDNLLFGDEIITNGFHSCESDEEDRASHASSSDWTPRPRIGPYTFVQQHLMIGTDPRTILKDLLPETIPPPELDDMTLWQIVINILSEPPKRKKRKDINTIEDAVKLLQECKKIIVLTGAGVSVSCGIPDFRSRDGIYARLAVDFPDLPDPQAMFDIEYFRKDPRPFFKFAKEIYPGQFQPSLCHKFIALSDKEGKLLRNYTQNIDTLEQVAGIQRIIQCHGSFATASCLICKYKVDCEAVRGDIFNQVVPRCPRCPADEPLAIMKPEIVFFGENLPEQFHRAMKYDKDEVDLLIVIGSSLKVRPVALIPSSIPHEVPQILINREPLPHLHFDVELLGDCDVIINELCHRLGGEYAKLCCNPVKLSEITEKPPRTQKELAYLSELPPTPLHVSEDSSSPERTSPPDSSVIVTLLDQAAKSNDDLDVSESKGCMEEKPQEVQTSRNVESIAEQMENPDLKNVGSSTGEKNERTSVAGTVRKCWPNRVAKEQISRRLDGNQYLFLPPNRYIFHGAEVYSDSEDDVLSSSSCGSNSDSGTCQSPSLEEPMEDESEIEEFYNGLEDEPDVPERAGGAGFGTDGDDQEAINEAISVKQEVTDMNYPSNKS,deacetylation of acetylated Ku70 peptide by SIRT1,[1],"this residue is acetylated in vivo, but is both a poor substrate of SIRT1 (FIG. 8D) and plays no apparent role in Bax-mediated apoptosis in vivo"
same,deacetylation of acetylated Ku70 peptide by recombinant SIRT1 (slot blot with pan-acetyl-lysine antibody; fluorogenic peptide assay),[2],SIRT1 efficiently deacetylated the two lysines in the C-terminus of Ku70 that are critical for regulating Bax
same,deacetylation of acetylated Ku70 peptide by recombinant SIRT1 (slot blot with pan-acetyl-lysine antibody; fluorogenic peptide assay),[3],SIRT1 efficiently deacetylated the two lysines in the C-terminus of Ku70 that are critical for regulating Bax
recombinant histone acetyltransferase (HAT) domain of CBP (protein) LEALYRQDPESLPFRQPVDPQLLGIPDYFDIVKNPMDLSTIKRKLDTGQYQEPWQYVDDVWLMFNNAWLYNRKTSRVYKFCSKLAEVFEQEIDPVMQSLGYCCGRKYEFSPQTLCCYGKQLCTIPRDAAYYSYQNRYHFCEKCFTEIQGENVTLGDDPSQPQTTISKDQFEKKKNDTLDPEPFVDCKECGRKMHQICVLHYDIIWPSGFVCDNCLKKTGRPRKENKFSAKRLQTTRLGNHLEDRVNKFLRRQNHPEAGEVFVRVVASSDKTVEVKPGMKSRFVDSGEMSESFPYRTKALFAFEEIDGVDVCFFGMHVQEYGSDCPPPNTRRVYISYLDSIHFFRPRCLRTAVYHEILIGYLEYVKKLGYVTGHIWACPPSEGDDYIFHCHPPDQKIPKPKRLQEWYKKMLDKAFAERIIHDYKDIFKQATEDRLTSAKELPYFEGDFWPNVLEESIKELEQEEEERKKEESTAASETTEGSQGDSKNAKKKNNKKTNKNKSSISRANKKKPSMPNVSNDLSQKLYATMEKHKEVFFVIHLHAGPVINTLPPIVDPDPLLSCDLMDGRDAFLTLARDKHWEFSSLRRSKWSTLCMLVELHTQGQDRFVYTCNECKHHVETRWHCTVCEDYDLCINCYNTKSHAHKMVKWGLGLDDEGSSQGE,in vitro acetylation of peptide 29 variants,[4],the peptide that retained K542 (KRRR) was the preferred target of both PCAF and CBP and was acetylated to almost the same extent as the original peptide 29 (KKKK)
same,in vitro acetylation of Ku70 peptides,[5],only two (16 and 29) were strongly acetylated by both PCAF and CBP
same,in vitro acetylation of Ku70 peptides,[6],only two (16 and 29) were strongly acetylated by both PCAF and CBP
same,in vitro acetylation of peptide 29 variants,[7],K553 (RRKR) was also weakly acetylated by PCAF and CBP
same,"in vitro acetylation (3H-acetyl-CoA, SDS-PAGE, autoradiography)",[8],"a strongly labeled band corresponding to the size of Ku70 was observed in each of the complete acetyltransferase reactions; Based on the intensity of the bands, CBP has the strongest preference for Ku70"
recombinant histone acetyltransferase (HAT) domain of PCAF (protein) MLEEEVYSQNSPIWDQDFLSASSRTSQLGIQTVINPPPVAGTISYNSTSSSLEQPNAGSSSPACKASSGLEANPGEKRKMTDSHVLEEAKKPRVMGDIPMELINEVMSTITDPAAMLGPETNFLSAHSARDEAARLEERRGVIEFHVVGNSLNQKPNKKILMWLVGLQNVFSHQLPRMPKEYITRLVFDPKHKTLALIKDGRVIGGICFRMFPSQGFTEIVFCAVTSNEQVKGYGTHLMNHLKEYHIKHDILNFLTYADEYAIGYFKKQGFSKEIKIPKTKYVGYIKDYEGATLMGCELNPRIPYTEFSVIIKKQKEIIKKLIERKQAQIRKVYPGLSCFKDGVRQIPIESIPGIRETGWKPSGKEKSKEPRDPDQLYSTLKSILQQVKSHQSAWPFMEPVKRTEAPGYYEVIRFPMDLKTMSERLKNRYYVSKKLFMADLQRVFTNCKEYNPPESEYYKCANILEKFFFSKIKEAGLIDK,in vitro acetylation of peptide 29 variants,[4],the peptide that retained K542 (KRRR) was the preferred target of both PCAF and CBP and was acetylated to almost the same extent as the original peptide 29 (KKKK)
same,Relative Intensity of Acetylation,[5],+++++
same,Relative Intensity of Acetylation,[9],++
same,Relative Intensity of Acetylation,[6],+++
same,Relative Intensity of Acetylation,[10],+++
same,in vitro acetylation of peptide 29 variants,[7],K553 (RRKR) was also weakly acetylated by PCAF and CBP
same,Relative Intensity of Acetylation,[11],+
same,"in vitro acetylation (3H-acetyl-CoA, SDS-PAGE, autoradiography)",[8],a strongly labeled band corresponding to the size of Ku70 was observed in each of the complete acetyltransferase reactions
recombinant histone acetyltransferase (HAT) domain of p300 (protein) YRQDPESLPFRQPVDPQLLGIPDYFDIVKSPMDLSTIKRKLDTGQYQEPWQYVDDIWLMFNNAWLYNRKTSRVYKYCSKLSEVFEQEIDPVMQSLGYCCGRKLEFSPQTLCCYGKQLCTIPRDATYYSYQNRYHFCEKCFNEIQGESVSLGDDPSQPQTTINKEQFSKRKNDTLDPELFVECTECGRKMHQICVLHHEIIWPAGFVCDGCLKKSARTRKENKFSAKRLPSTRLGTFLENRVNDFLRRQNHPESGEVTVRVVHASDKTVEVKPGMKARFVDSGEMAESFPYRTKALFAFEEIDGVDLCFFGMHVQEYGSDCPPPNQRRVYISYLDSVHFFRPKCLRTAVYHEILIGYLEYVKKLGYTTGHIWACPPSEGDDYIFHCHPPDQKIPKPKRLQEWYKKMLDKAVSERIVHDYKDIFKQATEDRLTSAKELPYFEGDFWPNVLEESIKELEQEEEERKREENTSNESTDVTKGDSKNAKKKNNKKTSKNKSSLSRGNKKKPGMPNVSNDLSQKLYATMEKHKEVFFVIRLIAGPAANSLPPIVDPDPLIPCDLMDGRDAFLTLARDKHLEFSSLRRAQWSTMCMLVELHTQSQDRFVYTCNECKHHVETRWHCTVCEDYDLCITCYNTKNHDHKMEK,"in vitro acetylation (3H-acetyl-CoA, SDS-PAGE, autoradiography)",[8],a strongly labeled band corresponding to the size of Ku70 was observed in each of the complete acetyltransferase reactions
